# From PMC2807035
# B1: DS domain of human DDR2 (His-tagged, residues 26-190) (domain or fragment)
# chain: NPAICRYPLGMSGGQIPDEDITASSQWSESTAAKYGRLDSEEGDGAWCPEIPVEPDDLKEFLQIDLHTLHFITLVGTQGRHAGGHGIEFAPMYKINYSRDGTRWISWRNRHGKQVLDGNSNPYDIFLKDLEPPIVARFVRFIPVTDHSMNVCMRVELYGCVWLDG
# Columns and labels:
# [1] = molecular target: triple-helical collagen peptide GPC-(GPP)5-GPRGQOGVNleGFO-(GPP)5-GPC-NH2; test: ELISA; solid-phase binding assay: DS2-Fc added to 96-well plates coated with triple-helical collagen peptides at 10 μg/ml
# [2] = molecular target: triple-helical collagen peptide Ac-GPOGPOGPOGPRGQOGVNleGFOGPOGPOG-NH2; test: crystal structure; complex formed at molar peptide:protein ratio ~1.5:1; hanging drop vapor diffusion at room temperature, 0.1 M PCB pH 7.0, 25% PEG1500; 1.6 Å, molecular replacement
# [3] = molecular target: triple-helical collagen peptide Ac-GPOGPOGPOGPRGQOGVNleGFOGPOGPOG-NH2; test: SEC; analytical size exclusion chromatography, 24 ml Superdex 75, 20 mM MES, 100 mM NaCl pH 6.5; 16 nmol DS domain in PBS alone or mixed with varying amounts of collagen peptide (two-fold molar excess for the complex), incubated 30 min in 0.5 ml
molecule,measurement,setting,value
DS2-Fc (Fc-tagged DS domain of DDR2) (Fc fusion),fold increase of binding against the methionine peptide,[1],10 fold
triple-helical collagen peptide Ac-GPOGPOGPOGPRGQOGVNleGFOGPOGPOG-NH2,stoichiometry N,[2],3
B1,stoichiometry N,[3],1
